Data published in PMC4304843, “Human Mitochondrial Hsp70 (Mortalin): Shedding Light on ATPase Activity, Interaction with Adenosine Nucleotides, Solution Structure and Domain Organization” (PLoS ONE, 2015).

What was measured:
[1] = biological target: Human mitochondrial Hsp70 (mortalin), recombinant (human) (UniProt P38646)
[2] = biological target: Human Hsp70-1A, recombinant (human) (UniProt P0DMV8)
Human Hsp70-1A, recombinant (human), sequence (P0DMV8 whole entry): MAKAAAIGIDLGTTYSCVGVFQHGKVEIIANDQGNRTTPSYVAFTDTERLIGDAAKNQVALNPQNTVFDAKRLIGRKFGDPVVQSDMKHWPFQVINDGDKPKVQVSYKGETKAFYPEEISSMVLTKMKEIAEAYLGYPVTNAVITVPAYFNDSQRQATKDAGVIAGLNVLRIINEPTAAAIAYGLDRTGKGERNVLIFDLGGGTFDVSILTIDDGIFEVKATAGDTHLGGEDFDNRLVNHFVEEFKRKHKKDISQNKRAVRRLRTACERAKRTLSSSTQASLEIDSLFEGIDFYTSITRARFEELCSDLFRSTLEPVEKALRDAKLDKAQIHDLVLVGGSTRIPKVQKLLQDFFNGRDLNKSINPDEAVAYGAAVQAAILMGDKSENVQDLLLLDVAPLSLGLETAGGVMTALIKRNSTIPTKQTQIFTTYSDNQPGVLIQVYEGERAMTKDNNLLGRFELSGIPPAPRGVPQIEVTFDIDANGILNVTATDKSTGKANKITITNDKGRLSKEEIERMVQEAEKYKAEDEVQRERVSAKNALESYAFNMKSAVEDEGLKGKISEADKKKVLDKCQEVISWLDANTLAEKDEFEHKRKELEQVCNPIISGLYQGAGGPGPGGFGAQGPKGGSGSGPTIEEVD

Human mitochondrial Hsp70 (mortalin), recombinant (human), sequence (P38646 47-679): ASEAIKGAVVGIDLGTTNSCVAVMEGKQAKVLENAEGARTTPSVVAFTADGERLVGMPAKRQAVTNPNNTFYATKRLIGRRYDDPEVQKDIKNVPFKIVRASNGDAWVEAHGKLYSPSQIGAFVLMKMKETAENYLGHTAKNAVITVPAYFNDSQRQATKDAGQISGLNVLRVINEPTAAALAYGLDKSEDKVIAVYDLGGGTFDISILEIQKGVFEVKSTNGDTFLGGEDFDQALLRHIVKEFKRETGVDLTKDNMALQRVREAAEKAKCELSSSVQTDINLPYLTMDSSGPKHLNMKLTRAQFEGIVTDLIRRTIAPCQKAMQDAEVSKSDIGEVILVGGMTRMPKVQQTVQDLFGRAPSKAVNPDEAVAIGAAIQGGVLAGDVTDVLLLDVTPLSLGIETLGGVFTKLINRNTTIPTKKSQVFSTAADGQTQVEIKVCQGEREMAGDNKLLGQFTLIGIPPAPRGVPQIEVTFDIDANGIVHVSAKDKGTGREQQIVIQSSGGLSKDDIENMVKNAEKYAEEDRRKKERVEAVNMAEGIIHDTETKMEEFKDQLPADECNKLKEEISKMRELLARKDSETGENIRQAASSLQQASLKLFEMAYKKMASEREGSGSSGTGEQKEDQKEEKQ

EC50 of the stimulation of the basal ATPase activity of Hsp70-1A by NR peptide titration (1 mmol/L ATP, 37°C) [2]: 170 µmol/L | relative stimulation of the basal ATPase activity of Hsp70-1A at increasing NR peptide concentrations; maximum reached at 500 μmol/L NR peptide [2]: 15%
Binder: NRLLLTGY [NR peptide (NRLLLTGY)]
EC50 of the stimulation of the basal ATPase activity of mortalin by NR peptide titration (1 mmol/L ATP, 37°C) [1]: 7 µmol/L | relative stimulation of the basal ATPase activity of mortalin at increasing NR peptide concentrations; maximum reached at 100 μmol/L NR peptide [1]: 25%
